Source: US20140087995A1 (published 2014)
Numbered stars: 1 amine (or outer) side, 2 acyl side, 3 side chain; on linkers, the order of the positions; unused ones are H or OH. Bridge positions count the residues as written; N and C are the ends. Side chains are listed from the residue outwards. Ends that are not written are not given here. * marks the point of attachment. C20 diacid = O=C(O)CCCCCCCCCCCCCCCCCCC(=O)*; γGlu = O=C(O)[C@H](CCC(=O)[*:2])N[*:1]; C14 diacid = O=C(O)CCCCCCCCCCCCC(=O)*; AEEA = NCCOCCOCC(=O)O

How the values were obtained:
[1] = molecular target: T1, human calcitonin receptor (human, UniProt P30988 25-474); assay: cell-based or functional assay
T1 sequence (looked up): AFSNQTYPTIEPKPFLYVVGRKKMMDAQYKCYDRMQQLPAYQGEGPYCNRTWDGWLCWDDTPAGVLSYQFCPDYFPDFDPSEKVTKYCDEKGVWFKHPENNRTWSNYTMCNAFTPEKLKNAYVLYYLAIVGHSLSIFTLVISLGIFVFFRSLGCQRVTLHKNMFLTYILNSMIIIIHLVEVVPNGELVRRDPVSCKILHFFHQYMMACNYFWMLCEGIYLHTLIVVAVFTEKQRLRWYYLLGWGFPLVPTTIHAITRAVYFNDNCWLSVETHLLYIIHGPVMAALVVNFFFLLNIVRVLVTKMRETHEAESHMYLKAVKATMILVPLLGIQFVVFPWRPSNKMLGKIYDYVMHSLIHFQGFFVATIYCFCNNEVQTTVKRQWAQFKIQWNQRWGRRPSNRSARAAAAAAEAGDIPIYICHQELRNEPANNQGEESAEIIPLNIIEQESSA

[2] = molecular target: T2, human amylin receptor (amylin 3(a) receptor: human calcitonin receptor with RAMP-3) (human, UniProt P30988 25-474; O60896 24-148, limits assumed); assay: SPA competition binding on membranes of BHK cells with human calcitonin receptor + RAMP-3; displacement of 125I-rat amylin (Assay V)
T2 construct: whole, on cells; Whole cells in the luciferase assay (Assay II a); also called hAmylin-R; hAmylinR
T2 sequence (looked up) 1: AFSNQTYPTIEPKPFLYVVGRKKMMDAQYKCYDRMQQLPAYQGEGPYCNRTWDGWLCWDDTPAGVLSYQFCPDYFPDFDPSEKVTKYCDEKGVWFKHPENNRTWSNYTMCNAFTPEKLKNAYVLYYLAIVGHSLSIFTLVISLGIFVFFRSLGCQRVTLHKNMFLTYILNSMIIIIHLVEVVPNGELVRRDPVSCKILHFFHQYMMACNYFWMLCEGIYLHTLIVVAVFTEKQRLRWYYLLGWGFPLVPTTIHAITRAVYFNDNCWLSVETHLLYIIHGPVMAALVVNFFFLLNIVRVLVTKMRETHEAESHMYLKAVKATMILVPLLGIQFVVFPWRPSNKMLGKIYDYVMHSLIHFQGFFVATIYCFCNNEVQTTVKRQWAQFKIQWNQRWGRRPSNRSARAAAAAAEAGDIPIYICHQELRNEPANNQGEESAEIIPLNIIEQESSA
T2 sequence (looked up) 2: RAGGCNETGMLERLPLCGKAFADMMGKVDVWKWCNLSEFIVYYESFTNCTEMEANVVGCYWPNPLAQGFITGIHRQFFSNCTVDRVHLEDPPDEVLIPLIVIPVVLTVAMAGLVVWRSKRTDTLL
Experimental: The binding assay was performed using scintillation proximity assay (SPA) beads (RPNQ0001) from PerkinElmer and cell membranes from the Amylin 3(a)/CRE-luc cells (as described in Assay (II)) were used. Membranes were prepared in the following way; the cells were rinsed with PBS and incubated with Versene for approximately 5 min before harvesting. The cells were flushed with PBS and the cell-suspension was centrifuged for 5 min at 1000 rpm. Cells were homogenized (ultrathurrax) in a buffer containing 20 mM Na-HEPES and 10 mM EDTA (pH 7.4) and centrifuged at 20.000 rpm for 15 min. The resulting pellet was resuspended, homogenized and centrifuged (20.000 rpm, 15 min) in a buffer containing 20 mM Na-HEPES and 0.1 mM EDTA (pH 7.4, buffer 2). The resulting pellet was resuspended in buffer 2 and protein concentration was measured (BCA protein Assay, Pierce). The homogenate was kept cold during the whole procedure. The membranes were kept at −80° C. until use. The assay was performed in a 384 well Optiplate (PerkinElmer) in a total volume of 40 ul. Membranes were mixed with SPA beads. Final concentration of membranes 35 ng/μL final and SPA beads was 0.05 mg/well. Test-compounds were dissolved in DMSO and further diluted in assay buffer (50 mM Hepes, pH 7.4, 1 mM CaCl2, 5 mM MgCl₂, 0.1% OA and 0.02% Tween20). […] The final mixture was incubated with shaking at 400 rpm for 120 min at 25° C. prior to centrifugation (1500 rpm, 10 min). Samples were analyzed on TopCounter™ (Packard). The IC₅₀ was calculated using (one site binding competition analysis) GraphPad Prism5 as a measure of receptor affinity.

Binder | hCTR funct. EC50 (pM) [1] [pM] | IC50 [2] [nM]
K([γGlu-γGlu-C20 diacid])CNTATCATQRLAEFLRHSSPNFGAIPSSTNVGPETY-NH2 (disulfide 2-7; N-terminus assumed; SMILES CC[C@H](C)[C@H](NC(=O)[C@H](C)NC(=O)CNC(=O)[C@H](Cc1ccccc1)NC(=O)[C@H](CC(N)=O)NC(=O)[C@@H]1CCCN1C(=O)[C@H](CO)NC(=O)[C@H](CO)NC(=O)[C@H](Cc1c[nH]cn1)NC(=O)[C@H](CCCNC(=N)N)NC(=O)[C@H](CC(C)C)NC(=O)[C@H](Cc1ccccc1)NC(=O)[C@H](CCC(=O)O)NC(=O)[C@H](C)NC(=O)[C@H](CC(C)C)NC(=O)[C@H](CCCNC(=N)N)NC(=O)[C@H](CCC(N)=O)NC(=O)[C@@H](NC(=O)[C@H](C)NC(=O)[C@@H]1CSSC[C@H](NC(=O)[C@@H](N)CCCCNC(=O)CC[C@H](NC(=O)CC[C@H](NC(=O)CCCCCCCCCCCCCCCCCCC(=O)O)C(=O)O)C(=O)O)C(=O)N[C@@H](CC(N)=O)C(=O)N[C@@H]([C@@H](C)O)C(=O)N[C@@H](C)C(=O)N[C@@H]([C@@H](C)O)C(=O)N1)[C@@H](C)O)C(=O)N1CCC[C@H]1C(=O)N[C@@H](CO)C(=O)N[C@@H](CO)C(=O)N[C@H](C(=O)N[C@@H](CC(N)=O)C(=O)N[C@H](C(=O)NCC(=O)N1CCC[C@H]1C(=O)N[C@@H](CCC(=O)O)C(=O)N[C@H](C(=O)N[C@@H](Cc1ccc(O)cc1)C(N)=O)[C@@H](C)O)C(C)C)[C@@H](C)O, synthetic peptide amide) | 2360 | 
K([AEEA-AEEA-γGlu-C20 diacid])CNTATCATQRLANFLRHSSPNFGAIPSSTNVGHNTY-NH2 (disulfide 2-7; N-terminus assumed; SMILES CC[C@H](C)[C@H](NC(=O)[C@H](C)NC(=O)CNC(=O)[C@H](Cc1ccccc1)NC(=O)[C@H](CC(N)=O)NC(=O)[C@@H]1CCCN1C(=O)[C@H](CO)NC(=O)[C@H](CO)NC(=O)[C@H](Cc1c[nH]cn1)NC(=O)[C@H](CCCNC(=N)N)NC(=O)[C@H](CC(C)C)NC(=O)[C@H](Cc1ccccc1)NC(=O)[C@H](CC(N)=O)NC(=O)[C@H](C)NC(=O)[C@H](CC(C)C)NC(=O)[C@H](CCCNC(=N)N)NC(=O)[C@H](CCC(N)=O)NC(=O)[C@@H](NC(=O)[C@H](C)NC(=O)[C@@H]1CSSC[C@H](NC(=O)[C@@H](N)CCCCNC(=O)COCCOCCNC(=O)COCCOCCNC(=O)CC[C@H](NC(=O)CCCCCCCCCCCCCCCCCCC(=O)O)C(=O)O)C(=O)N[C@@H](CC(N)=O)C(=O)N[C@@H]([C@@H](C)O)C(=O)N[C@@H](C)C(=O)N[C@@H]([C@@H](C)O)C(=O)N1)[C@@H](C)O)C(=O)N1CCC[C@H]1C(=O)N[C@@H](CO)C(=O)N[C@@H](CO)C(=O)N[C@H](C(=O)N[C@@H](CC(N)=O)C(=O)N[C@H](C(=O)NCC(=O)N[C@@H](Cc1c[nH]cn1)C(=O)N[C@@H](CC(N)=O)C(=O)N[C@H](C(=O)N[C@@H](Cc1ccc(O)cc1)C(N)=O)[C@@H](C)O)C(C)C)[C@@H](C)O, synthetic peptide amide; also called compound 97) | 11800 | 

The next lines start with the values.

hCTR funct. EC50 (pM) [1] [pM] | IC50 [2] [nM] | Binder
1090 |  | K([γGlu-C14 diacid])CNTATCATQRLANFLRHSSPNFGAIPSSTNVGHNTY-NH2 (disulfide 2-7; N-terminus assumed; SMILES CC[C@H](C)[C@H](NC(=O)[C@H](C)NC(=O)CNC(=O)[C@H](Cc1ccccc1)NC(=O)[C@H](CC(N)=O)NC(=O)[C@@H]1CCCN1C(=O)[C@H](CO)NC(=O)[C@H](CO)NC(=O)[C@H](Cc1c[nH]cn1)NC(=O)[C@H](CCCNC(=N)N)NC(=O)[C@H](CC(C)C)NC(=O)[C@H](Cc1ccccc1)NC(=O)[C@H](CC(N)=O)NC(=O)[C@H](C)NC(=O)[C@H](CC(C)C)NC(=O)[C@H](CCCNC(=N)N)NC(=O)[C@H](CCC(N)=O)NC(=O)[C@@H](NC(=O)[C@H](C)NC(=O)[C@@H]1CSSC[C@H](NC(=O)[C@@H](N)CCCCNC(=O)CC[C@H](NC(=O)CCCCCCCCCCCCC(=O)O)C(=O)O)C(=O)N[C@@H](CC(N)=O)C(=O)N[C@@H]([C@@H](C)O)C(=O)N[C@@H](C)C(=O)N[C@@H]([C@@H](C)O)C(=O)N1)[C@@H](C)O)C(=O)N1CCC[C@H]1C(=O)N[C@@H](CO)C(=O)N[C@@H](CO)C(=O)N[C@H](C(=O)N[C@@H](CC(N)=O)C(=O)N[C@H](C(=O)NCC(=O)N[C@@H](Cc1c[nH]cn1)C(=O)N[C@@H](CC(N)=O)C(=O)N[C@H](C(=O)N[C@@H](Cc1ccc(O)cc1)C(N)=O)[C@@H](C)O)C(C)C)[C@@H](C)O, synthetic peptide amide) [N^ε1-[(4S)-4-carboxy-4-(13-carboxytridecanoylamino)butanoyl]-[Arg17,Pro21,Pro27,His34]-h-amylin]
1630 |  | K([AEEA-AEEA-γGlu-C20 diacid])CNTATCATQRLANFLRHSSPNFGAIPSSTNVGPNTY-NH2 (disulfide 2-7; N-terminus assumed; SMILES CC[C@H](C)[C@H](NC(=O)[C@H](C)NC(=O)CNC(=O)[C@H](Cc1ccccc1)NC(=O)[C@H](CC(N)=O)NC(=O)[C@@H]1CCCN1C(=O)[C@H](CO)NC(=O)[C@H](CO)NC(=O)[C@H](Cc1c[nH]cn1)NC(=O)[C@H](CCCNC(=N)N)NC(=O)[C@H](CC(C)C)NC(=O)[C@H](Cc1ccccc1)NC(=O)[C@H](CC(N)=O)NC(=O)[C@H](C)NC(=O)[C@H](CC(C)C)NC(=O)[C@H](CCCNC(=N)N)NC(=O)[C@H](CCC(N)=O)NC(=O)[C@@H](NC(=O)[C@H](C)NC(=O)[C@@H]1CSSC[C@H](NC(=O)[C@@H](N)CCCCNC(=O)COCCOCCNC(=O)COCCOCCNC(=O)CC[C@H](NC(=O)CCCCCCCCCCCCCCCCCCC(=O)O)C(=O)O)C(=O)N[C@@H](CC(N)=O)C(=O)N[C@@H]([C@@H](C)O)C(=O)N[C@@H](C)C(=O)N[C@@H]([C@@H](C)O)C(=O)N1)[C@@H](C)O)C(=O)N1CCC[C@H]1C(=O)N[C@@H](CO)C(=O)N[C@@H](CO)C(=O)N[C@H](C(=O)N[C@@H](CC(N)=O)C(=O)N[C@H](C(=O)NCC(=O)N1CCC[C@H]1C(=O)N[C@@H](CC(N)=O)C(=O)N[C@H](C(=O)N[C@@H](Cc1ccc(O)cc1)C(N)=O)[C@@H](C)O)C(C)C)[C@@H](C)O, synthetic peptide amide; also called compound 98)
 | 0.249 | K([AEEA-γGlu-C20 diacid])CNTATCATQRLANFLRHSSPNFGAIPSSTNVGSRTY-NH2 (disulfide 2-7; N-terminus assumed; SMILES CC[C@H](C)[C@H](NC(=O)[C@H](C)NC(=O)CNC(=O)[C@H](Cc1ccccc1)NC(=O)[C@H](CC(N)=O)NC(=O)[C@@H]1CCCN1C(=O)[C@H](CO)NC(=O)[C@H](CO)NC(=O)[C@H](Cc1c[nH]cn1)NC(=O)[C@H](CCCNC(=N)N)NC(=O)[C@H](CC(C)C)NC(=O)[C@H](Cc1ccccc1)NC(=O)[C@H](CC(N)=O)NC(=O)[C@H](C)NC(=O)[C@H](CC(C)C)NC(=O)[C@H](CCCNC(=N)N)NC(=O)[C@H](CCC(N)=O)NC(=O)[C@@H](NC(=O)[C@H](C)NC(=O)[C@@H]1CSSC[C@H](NC(=O)[C@@H](N)CCCCNC(=O)COCCOCCNC(=O)CC[C@H](NC(=O)CCCCCCCCCCCCCCCCCCC(=O)O)C(=O)O)C(=O)N[C@@H](CC(N)=O)C(=O)N[C@@H]([C@@H](C)O)C(=O)N[C@@H](C)C(=O)N[C@@H]([C@@H](C)O)C(=O)N1)[C@@H](C)O)C(=O)N1CCC[C@H]1C(=O)N[C@@H](CO)C(=O)N[C@@H](CO)C(=O)N[C@H](C(=O)N[C@@H](CC(N)=O)C(=O)N[C@H](C(=O)NCC(=O)N[C@@H](CO)C(=O)N[C@@H](CCCNC(=N)N)C(=O)N[C@H](C(=O)N[C@@H](Cc1ccc(O)cc1)C(N)=O)[C@@H](C)O)C(C)C)[C@@H](C)O, also called compound 38)
